Measured values taken from patent US20060078537A1 (published 2006).

Assays:
human CCR5 = target: T1, human CCR5 (human, UniProt P51681 1-352); assay: told from CCR5 internalization on CD4+ and CD8+ T cells of human PBMC (FACS)
T1 construct: whole, on cells; also called CCR5 receptor
Procedure: (§1) RM and MR induced internalization of CCR5 on T cells is shown in FIGS. 7A and 7B, respectively. Human PBMC were incubated for 30 min at 37° C. with various concentrations of RM (FIG. 7A), MR (FIG. 7B) and RANTES and stained on ice for 1 h with a combination of directly conjugated antibodies against CCR5, CD8 and CD4. Mean channel fluorescence (MCF) of CCR5 was quantified on CD4 and CD8 positive T cells by FACS-analysis. Relative surface expression of CCR5 was calculated as [MCF(exp.)-MCF(negative control)]/[(MCF(medium)-MCF(negative control).
as §1, with “Human” for “RM and MR induced internalization of CCR5 on T cells is shown in FIGS. 7A and 7B, respectively. Human”, “RANTES. Cells were then” for “RANTES and”, “CD4 (CCR5-PE, Pharmingen, CD8-Cychrome, Immunotech and CD4-APC, Immunotech). CD4+ and CD8+ T cells were identified by expression of CD4 and CD8 as well as by their light scatter properties.” for “CD4.”

CD4 on human T cells [1] = target: T2, CD4 on human T cells (human, UniProt P01730 26-458); assay: FACS on PBMC, 1 h on ice, detected with anti-6xHis or anti-RANTES (VL-1) antibody
T2 construct: whole, on cells
Procedure: (§2) PBMC were incubated for 1 h on ice with the constructs RM and MR in various concentrations. After washing with PBS, cell bound constructs were detected with an antibody against 6×His (Dianova) or an antibody against RANTES (VL-1) followed by incubation with PE-labelled rabbit-anti-mouse F(ab) fragments (Dako R439). Binding of RM and MR to CD4 on T cells was detected by FACS analysis (FIG. 6A).

CD4 on human T cells [2] = target: T2, CD4 on human T cells; assay: FACS on PBMC
Procedure: as §2

T1 sequence (P51681 whole entry): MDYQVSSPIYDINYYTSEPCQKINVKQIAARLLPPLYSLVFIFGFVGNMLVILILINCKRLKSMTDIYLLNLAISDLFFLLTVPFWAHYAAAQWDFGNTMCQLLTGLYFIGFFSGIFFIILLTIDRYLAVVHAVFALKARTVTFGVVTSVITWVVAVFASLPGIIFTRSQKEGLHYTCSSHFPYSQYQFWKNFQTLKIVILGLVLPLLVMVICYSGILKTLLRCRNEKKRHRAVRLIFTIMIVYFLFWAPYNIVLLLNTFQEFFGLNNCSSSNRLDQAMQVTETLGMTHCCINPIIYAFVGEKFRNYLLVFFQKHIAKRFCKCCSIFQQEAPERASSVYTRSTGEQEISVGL

| Binder | binding result (human CCR5) | binding result (CD4 on human T cells [1]) | binding result (CD4 on human T cells [2]) |
| --- | --- | --- | --- |
| MR construct ((VL) anti-CD4-linker-(VH) anti-CD4-linker-RANTES) (other, Expressed in the periplasm of E. coli and also in CHO cells; also called antiCD4-RANTES) DYKDDDDKDIVLTQSPASLAVSLGQRATISCKASQSVDYDGDSYMNWYQQKSGQPPKLLIYAASNLESGIPARFSGSGSGTDFTLNIHPVEEEDAATYYCQQSIQDPCTFGGGTELEIKGGGGSGGGGSGGGGSQVQLQQSGPELVKPGASVKMSCKASGYTFTDYVINWVKQRTGQGLEWIGEIYPGSGSDYYNENLKDKATLTADKSSNTAYMQLSSLTSEDSAVYFCARKGENGNSLAFAYWGQGTLVTVSAGGGGSGGGGSSPYSSDTTPCCFAYIARPLPRAHIKEYFYTSGKCSNPAVVFVTRKNRQVCANPEKKWVREYINSLQMSHHHHHH | binds | binds |  |
| RM construct (RANTES-linker-(VH) anti-CD4-linker-(VL) anti-CD4) (other, also called RANTES-antiCD4; RANTES-anti-CD4) SPYSSDTTPCCFAYIARPLPRAHIKEYFYTSGKCSNPAVVFVTRKNRQVCANPEKKWVREYINSLQMSSGGGGSGGGGSDIQLQQSGPELVKPGASVKMSCKASGYTFTDYVINWVKQRTGQGLEWIGEIYPGSGSDYYNENLKDKATLTADKSSNTAYMQLSSLTSEDSAVYFCARKGENGNSLAFAYWGQGTLVTVSAGGGGSGGGGSGGGGDIVLTQSPASLAVSLGQRATISCKASQSVDYDGDSYMNWYQQKSGQPPKLLIYAASNLESGIPARFSGSGSGTDFTLNIHPVEEEDAATYYCQQSIQDPCTFGGGTELEIKHHHHHH | binds |  | binds |
